Measurements reported in the Immune Epitope Database (IEDB).
Blank lines part the entries; values can stand above or below the sequence they belong to.

What was measured:
HLA-B*40:01 [1] = assay: IEDB peptide-MHC binding, purified MHC/direct/fluorescence; filed as Kd, often an IC50 or EC50 that approximates it; ≥ and ≤ were set here for values at or beyond the usual limits of such assays
HLA-B*08:01 [2] = assay: as above
HLA-A*69:01 = assay: as above
HLA-B*07:02 = assay: as above
HLA-B*44:02 = assay: as above
HLA-A*11:01 [3] = assay: as above
HLA-B*27:05 = assay: as above
HLA-A*02:01 = assay: as above
HLA-A*01:01 = assay: as above
HLA-B*58:01 = assay: as above
HLA-A*26:01 [4] = assay: as above
HLA-A*03:01 = assay: as above
HLA-A*31:01 = assay: as above
HLA-A*24:03 = assay: as above; settings: source organism: Yersinia pestis
HLA-B*15:01 [5] = assay: as above
HLA-A*02:50 = assay: IEDB peptide-MHC binding, purified MHC/competitive/fluorescence; filed as Kd, often an IC50 or EC50 that approximates it; ≥ and ≤ were set here for values at or beyond the usual limits of such assays
HLA-A*02:03 [6] = assay: IEDB peptide-MHC binding, purified MHC/direct/fluorescence; filed as Kd, often an IC50 or EC50 that approximates it; ≥ and ≤ were set here for values at or beyond the usual limits of such assays; settings: source organism: Bacillus cereus 03BB108
HLA-A*02:12 = assay: as above; settings: source organism: Bacillus cereus 03BB108
HLA-B*15:17 = assay: as above; settings: source organism: Escherichia coli O157:H7
HLA-B*57:01 = assay: as above
HLA-B*18:01 = assay: as above
HLA-A*26:02 = assay: IEDB peptide-MHC binding, purified MHC/competitive/fluorescence; filed as Kd, often an IC50 or EC50 that approximates it; ≥ and ≤ were set here for values at or beyond the usual limits of such assays
HLA-A*11:01 [7] = assay: as above; settings: source organism: Escherichia coli str. K-12 substr. MG1655
HLA-A*68:02 [8] = assay: as above; settings: source organism: Escherichia coli str. K-12 substr. MG1655
HLA-B*40:01 [9] = assay: as above
HLA-B*39:01 [10] = assay: as above
HLA-B*15:01 [11] = assay: as above
HLA-B*08:01 [12] = assay: as above; settings: source organism: Homo sapiens
HLA-A*02:06 = assay: as above; settings: source organism: Homo sapiens
HLA-A*02:03 [13] = assay: as above; settings: source organism: Homo sapiens
HLA-A*30:01 = assay: as above; settings: source organism: Homo sapiens
HLA-C*03:03 = assay: IEDB peptide-MHC binding, purified MHC/direct/fluorescence; filed as Kd, often an IC50 or EC50 that approximates it; ≥ and ≤ were set here for values at or beyond the usual limits of such assays
HLA-B*08:02 = assay: as above; settings: source organism: Vibrio parahaemolyticus RIMD 2210633
HLA-B*15:09 = assay: as above; settings: source organism: Vibrio parahaemolyticus RIMD 2210633
HLA-B*39:01 [14] = assay: as above
HLA-A*68:02 [15] = assay: as above; settings: source organism: Vibrio parahaemolyticus
HLA-A*26:01 [16] = assay: IEDB peptide-MHC binding, purified MHC/competitive/fluorescence; filed as Kd, often an IC50 or EC50 that approximates it; ≥ and ≤ were set here for values at or beyond the usual limits of such assays; settings: source organism: Vibrio parahaemolyticus K5030
HLA-C*14:02 = assay: IEDB peptide-MHC binding, purified MHC/direct/fluorescence; filed as Kd, often an IC50 or EC50 that approximates it; ≥ and ≤ were set here for values at or beyond the usual limits of such assays
HLA-A*29:02 = assay: as above; settings: source organism: Mammarenavirus juninense
HLA-A*02:11 = assay: as above; settings: source organism: Mammarenavirus juninense
[17] = source organism: Yersinia pestis
[18] = source organism: Bacillus anthracis
[19] = source organism: Escherichia coli O157:H7
[20] = source organism: Vibrio cholerae
[21] = source organism: Escherichia coli O139:H28 str. E24377A
[22] = source organism: Vibrio parahaemolyticus RIMD 2210633
[23] = source organism: Vibrio parahaemolyticus
[24] = source organism: Vibrio parahaemolyticus K5030
[25] = source organism: Cryptosporidium parvum
[26] = source organism: Mammarenavirus juninense
[27] = source organism: Escherichia coli APEC O1

Sequence: FMSLQSGDV
Kd (HLA-B*40:01 [1]; [17]): ≥ 20 µM
Kd (HLA-B*08:01 [2]; [17]): ≥ 20 µM
Kd (HLA-A*69:01; [17]): 1.34 µM
Kd (HLA-B*07:02; [17]): ≥ 20 µM
Kd (HLA-B*44:02; [17]): ≥ 20 µM
Kd (HLA-A*11:01 [3]; [17]): ≥ 20 µM
Kd (HLA-B*27:05; [17]): ≥ 20 µM
Kd (HLA-A*02:01; [17]): ≥ 20 µM
Kd (HLA-A*01:01; [17]): ≥ 20 µM
Kd (HLA-B*58:01; [17]): ≥ 20 µM
Kd (HLA-A*26:01 [4]; [17]): ≥ 20 µM
Kd (HLA-A*03:01; [17]): ≥ 20 µM
Kd (HLA-A*31:01; [17]): ≥ 20 µM
Kd (HLA-A*24:03): ≥ 20 µM
Kd (HLA-B*15:01 [5]; [17]): ≥ 20 µM
Kd (HLA-A*02:50; source organism: Yersinia pestis Nepal516): 0.0025 µM

Sequence: AQMVWIHGV
Kd (HLA-A*02:03 [6]): 0.03 µM
Kd (HLA-B*07:02; [18]): ≥ 20 µM
Kd (HLA-A*02:01; [18]): 0.0013 µM
Kd (HLA-A*02:12): 0.071 µM
Kd (HLA-A*02:50; source organism: Bacillus anthracis str. A2012): 0.0003 µM

Kd (HLA-B*15:17): ≥ 20 µM
Kd (HLA-B*07:02; [19]): 7 µM
Kd (HLA-B*27:05; [19]): ≥ 20 µM
Kd (HLA-A*02:01; [19]): 6.91 µM
Kd (HLA-A*01:01; [19]): ≥ 20 µM
Kd (HLA-B*58:01; [19]): ≥ 20 µM
Kd (HLA-A*03:01; [19]): ≥ 20 µM
Kd (HLA-A*31:01; [19]): ≥ 20 µM
Kd (HLA-B*57:01; [19]): ≥ 20 µM
Kd (HLA-B*15:01 [5]; [19]): ≥ 20 µM
Kd (HLA-B*18:01; [19]): ≥ 20 µM
Kd (HLA-A*26:02; source organism: Escherichia coli str. K-12 substr. MG1655): 0.565 µM
Kd (HLA-A*11:01 [7]): ≥ 20 µM
Kd (HLA-A*68:02 [8]): 3.54 µM
Sequence: NLPSKPVWL

Sequence: FLHPKHWGT
Kd (HLA-B*40:01 [1]; [20]): ≥ 20 µM
Kd (HLA-B*08:01 [2]; [20]): 0.285 µM
Kd (HLA-A*69:01; [20]): 3.48 µM
Kd (HLA-B*07:02; [20]): ≥ 20 µM
Kd (HLA-B*44:02; [20]): ≥ 20 µM
Kd (HLA-A*11:01 [3]; [20]): ≥ 20 µM
Kd (HLA-B*27:05; [20]): ≥ 20 µM
Kd (HLA-A*02:01; [20]): 0.157 µM
Kd (HLA-A*01:01; [20]): ≥ 20 µM
Kd (HLA-B*58:01; [20]): ≥ 20 µM
Kd (HLA-A*26:01 [4]; [20]): ≥ 20 µM
Kd (HLA-A*03:01; [20]): ≥ 20 µM
Kd (HLA-A*31:01; [20]): ≥ 20 µM
Kd (HLA-B*15:01 [5]; [20]): ≥ 20 µM
Kd (HLA-A*02:50; source organism: Vibrio cholerae 2740-80): ≤ 0.0001 µM

Kd (HLA-B*40:01 [9]; [21]): 0.836 µM
Kd (HLA-B*39:01 [10]; [21]): 0.017 µM
Kd (HLA-B*15:01 [11]; [21]): 0.152 µM
Sequence: LQMLGENVL

Kd (HLA-B*08:01 [12]): ≥ 20 µM
Kd (HLA-A*02:06): 2.07 µM
Kd (HLA-A*02:03 [13]): ≥ 20 µM
Kd (HLA-A*26:02; source organism: Homo sapiens): ≥ 20 µM
Kd (HLA-B*39:01 [10]; source organism: Homo sapiens): ≥ 20 µM
Kd (HLA-A*30:01): 2.33 µM
Sequence: VRVCACPGR

Sequence: VLNETTNWL
Kd (HLA-A*69:01; source organism: West Nile virus): ≥ 20 µM
Kd (HLA-C*03:03; source organism: Japanese encephalitis virus): ≥ 20 µM

Sequence: DMRKRIEAF
Kd (HLA-B*08:01 [2]; [22]): 0.013 µM
Kd (HLA-A*69:01; [23]): ≥ 20 µM
Kd (HLA-B*08:02): 0.171 µM
Kd (HLA-B*07:02; [23]): ≥ 20 µM
Kd (HLA-A*11:01 [3]; [23]): ≥ 20 µM
Kd (HLA-B*15:09): ≥ 20 µM
Kd (HLA-B*39:01 [14]; [22]): ≥ 20 µM
Kd (HLA-A*02:01; [23]): ≥ 20 µM
Kd (HLA-A*01:01; [23]): ≥ 20 µM
Kd (HLA-B*58:01; [23]): ≥ 20 µM
Kd (HLA-B*57:01; [23]): ≥ 20 µM
Kd (HLA-A*68:02 [15]): ≥ 20 µM
Kd (HLA-B*18:01; [22]): 0.025 µM
Kd (HLA-A*26:02; [24]): 0.0073 µM
Kd (HLA-A*26:01 [16]): ≥ 20 µM
Kd (HLA-B*15:01 [11]; [24]): ≥ 20 µM

Sequence: FQYYGIDWV
Kd (HLA-A*69:01; [23]): 0.495 µM
Kd (HLA-A*02:01; [23]): 0.0117 µM
Kd (HLA-A*02:50; [22]): ≤ 0.0001 µM

Sequence: KAFPLIQNM
Kd (HLA-C*14:02; source organism: Cryptosporidium parvum Iowa II): 0.368 µM
Kd (HLA-B*58:01; [25]): 0.0124 µM
Kd (HLA-B*57:01; [25]): 0.124 µM

Sequence: ASSEPHCAL
Kd (HLA-B*44:02; [26]): ≥ 20 µM
Kd (HLA-A*29:02): ≥ 20 µM
Kd (HLA-C*03:03; [26]): ≤ 0.001 µM
Kd (HLA-A*02:11): 0.04 µM
Kd (HLA-B*27:05; [26]): ≥ 20 µM
Kd (HLA-B*39:01 [14]; [26]): 1.07 µM
Kd (HLA-A*02:01; [26]): ≥ 20 µM
Kd (HLA-A*01:01; [26]): ≥ 20 µM
Kd (HLA-B*58:01; [26]): ≥ 20 µM
Kd (HLA-A*03:01; [26]): ≥ 20 µM
Kd (HLA-A*31:01; [26]): ≥ 20 µM
Kd (HLA-B*57:01; [26]): ≥ 20 µM
Kd (HLA-B*18:01; [26]): ≥ 20 µM

Sequence: VAAHNAEAM
Kd (HLA-C*03:03; source organism: Leishmania major strain Friedlin): 0.002 µM

Kd (HLA-B*40:01 [9]; [27]): 0.0011 µM
Kd (HLA-B*15:01 [11]; [27]): 0.67 µM
Sequence: HESSVSWMF

Sequence: AASYARYVL
Kd (HLA-C*14:02; source organism: human gammaherpesvirus 4): 0.491 µM
